Measured values: patent US20090098112A1 (Genentech, published 2009)

How the values were obtained:
[1] = target: T1, recombinant human integrin α5β1 (R&D) (human, UniProt P08648 42-995; P05556 21-728); test: phage competition ELISA IC50 of the Fab-phage against human integrin α5β1, relative to parental h7H5.v1; down arrow = loss, up arrow = improvement of binding affinity
T1 construct: Bought recombinant heterodimer (R&D); It was used coated on plates and in solution in the phage ELISA, and as analyte or immobilized in BIAcore; also called alpha5beta1; a5b1
Description: Substitutions with other resides at various positions was achieved by Kunkel mutagenesis using a separate oligonucleotide for each position. […] The IC50 values for binding affinity were determined by phage competition ELISA in FIG. 6. Two variants, h7H5.v2 and h7H5.v3 as indicated were selected to include glycine substitution at position 65 of CDR-H2, cloned into hIgG1 vector, and evaluated binding affinities using BIAcore instrument.
(§1) MAXISORP™ microtiter plates were coated with recombinant human integrin α5β1 (R&D) at 5 μg/ml in PBS overnight and then blocked with PBST buffer (0.5% BSA and 0.05% Tween 20 in PBS) for an hour at room temperature. Phage from culture supernatants were incubated with serially diluted human integrin α5β1 in PBST buffer in a tissue-culture microtiter plate for an hour, after which 80 μl of the mixture was transferred to the target-coated wells for 15 minutes to capture unbound phage. The plate was washed with PBT buffer (0.05% Tween 20 in PBS), and HRP-conjugated anti-M13 (Amersham Pharmacia Biotech) was added (1:5000 in PBST buffer) for 40 minutes. The plate was washed with PBT buffer and developed by adding tetramethylbenzidine substrate (Kirkegaard and Perry Laboratories, Gaithersburg, Md.). The absorbance at 450 nm was plotted as a function of target concentration in solution to determine phage IC₅₀.

[2] = target: T1, recombinant human integrin α5β1 (R&D); test: phage competition ELISA: Fab-phage incubated with serially diluted soluble human integrin α5β1, unbound phage captured on plate-coated integrin α5β1, anti-M13-HRP, A450
Description: Mutation at each position was generated by Kunkel mutagenesis using a separate oligonucleotide. Phage competition ELISA was utilized for evaluating all of the variants. […] Binding affinities (IC50) against human integrin α5β1 was determined.
as §1

T1 sequence (P08648 42-995 limits assumed, chain 1 of 2): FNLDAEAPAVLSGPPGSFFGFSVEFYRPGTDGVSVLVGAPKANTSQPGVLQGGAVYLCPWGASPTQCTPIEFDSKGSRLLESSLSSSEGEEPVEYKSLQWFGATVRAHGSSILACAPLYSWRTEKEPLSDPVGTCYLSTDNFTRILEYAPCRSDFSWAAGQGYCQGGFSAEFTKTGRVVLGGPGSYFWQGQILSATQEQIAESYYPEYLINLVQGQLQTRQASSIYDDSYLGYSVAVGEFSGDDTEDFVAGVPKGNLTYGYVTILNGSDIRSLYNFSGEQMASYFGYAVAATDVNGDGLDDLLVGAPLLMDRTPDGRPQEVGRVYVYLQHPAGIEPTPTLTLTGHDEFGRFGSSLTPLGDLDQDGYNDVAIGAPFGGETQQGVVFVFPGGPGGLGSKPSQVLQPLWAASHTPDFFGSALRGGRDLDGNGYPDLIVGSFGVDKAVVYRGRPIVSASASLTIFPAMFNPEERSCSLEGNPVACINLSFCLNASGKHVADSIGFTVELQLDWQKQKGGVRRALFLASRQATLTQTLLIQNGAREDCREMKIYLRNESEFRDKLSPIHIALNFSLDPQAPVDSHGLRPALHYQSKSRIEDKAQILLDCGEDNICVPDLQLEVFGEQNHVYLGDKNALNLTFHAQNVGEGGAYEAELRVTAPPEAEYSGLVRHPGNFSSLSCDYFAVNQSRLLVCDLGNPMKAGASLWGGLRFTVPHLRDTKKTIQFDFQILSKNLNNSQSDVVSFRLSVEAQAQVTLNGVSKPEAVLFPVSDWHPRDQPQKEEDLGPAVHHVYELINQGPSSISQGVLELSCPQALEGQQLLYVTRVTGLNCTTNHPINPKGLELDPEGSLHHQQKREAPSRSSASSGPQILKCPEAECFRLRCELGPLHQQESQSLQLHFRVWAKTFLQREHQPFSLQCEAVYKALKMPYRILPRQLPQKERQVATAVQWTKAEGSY
T1 sequence (P05556 21-728 limits assumed, chain 2 of 2): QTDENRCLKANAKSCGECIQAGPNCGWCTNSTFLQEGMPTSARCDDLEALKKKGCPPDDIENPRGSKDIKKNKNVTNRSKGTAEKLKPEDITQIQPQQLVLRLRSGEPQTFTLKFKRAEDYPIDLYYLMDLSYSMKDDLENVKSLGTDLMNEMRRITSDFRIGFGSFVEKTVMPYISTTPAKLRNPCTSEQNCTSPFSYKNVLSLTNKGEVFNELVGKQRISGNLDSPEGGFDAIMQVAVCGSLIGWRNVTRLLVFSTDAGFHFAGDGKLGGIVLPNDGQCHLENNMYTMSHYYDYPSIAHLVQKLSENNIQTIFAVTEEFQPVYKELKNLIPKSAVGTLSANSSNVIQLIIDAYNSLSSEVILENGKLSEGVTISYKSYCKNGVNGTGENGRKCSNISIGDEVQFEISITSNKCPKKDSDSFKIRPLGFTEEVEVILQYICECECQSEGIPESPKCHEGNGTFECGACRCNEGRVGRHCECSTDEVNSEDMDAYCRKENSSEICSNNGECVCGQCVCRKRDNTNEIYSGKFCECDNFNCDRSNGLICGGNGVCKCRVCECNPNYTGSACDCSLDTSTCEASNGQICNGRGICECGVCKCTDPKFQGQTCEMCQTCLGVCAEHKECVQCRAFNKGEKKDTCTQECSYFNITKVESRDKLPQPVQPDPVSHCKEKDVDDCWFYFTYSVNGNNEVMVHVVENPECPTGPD

Binder | Relative Fold to h7H5.v1 [1] [fold] | IC50 (read off the curve) [2] [nM] | binding result [2]
CDR-H2:N54S (Fab, part only; not given: VH end, constant domains, phage fusion, V domains shown, not shown: another chain or arm of the molecule; a dimerising Fc or GST; large carriers) VL: DIQMTQSPSSLSASVGDRVTITCKASQNVGSDVAWYQQKPGKAPKTLIYSTSYRYSGVPSRFSGSGSGTDFTLTISSLQPEDFATYYCQQYNSYPFTFGQGTKVEIK VH: EVQLVESGGGLVQPGGSLRLSCAASGYTFTDYYLYWVRQAPGKGLEWIGGISPSSGGTTFNDNFENKATLSVDKSKNTAYLQMNSLRAEDTAVYYCTRDAYGDWYFDVWGQGT | 1 | – | –
CDR-H2:N60A (Fab, part only; not given: VH end, constant domains, phage fusion, V domains shown, not shown: another chain or arm of the molecule; a dimerising Fc or GST; large carriers) VL: DIQMTQSPSSLSASVGDRVTITCKASQNVGSDVAWYQQKPGKAPKTLIYSTSYRYSGVPSRFSGSGSGTDFTLTISSLQPEDFATYYCQQYNSYPFTFGQGTKVEIK VH: EVQLVESGGGLVQPGGSLRLSCAASGYTFTDYYLYWVRQAPGKGLEWIGGISPSNGGTTFADNFENKATLSVDKSKNTAYLQMNSLRAEDTAVYYCTRDAYGDWYFDVWGQGT | 1.6 | – | –
CDR-H2:N60S (Fab, part only; not given: VH end, constant domains, phage fusion, V domains shown, not shown: another chain or arm of the molecule; a dimerising Fc or GST; large carriers) VL: DIQMTQSPSSLSASVGDRVTITCKASQNVGSDVAWYQQKPGKAPKTLIYSTSYRYSGVPSRFSGSGSGTDFTLTISSLQPEDFATYYCQQYNSYPFTFGQGTKVEIK VH: EVQLVESGGGLVQPGGSLRLSCAASGYTFTDYYLYWVRQAPGKGLEWIGGISPSNGGTTFSDNFENKATLSVDKSKNTAYLQMNSLRAEDTAVYYCTRDAYGDWYFDVWGQGT | 2.5 | – | –
CDR-H2:N62A (Fab, part only; not given: VH end, constant domains, phage fusion, V domains shown, not shown: another chain or arm of the molecule; a dimerising Fc or GST; large carriers) VL: DIQMTQSPSSLSASVGDRVTITCKASQNVGSDVAWYQQKPGKAPKTLIYSTSYRYSGVPSRFSGSGSGTDFTLTISSLQPEDFATYYCQQYNSYPFTFGQGTKVEIK VH: EVQLVESGGGLVQPGGSLRLSCAASGYTFTDYYLYWVRQAPGKGLEWIGGISPSNGGTTFNDAFENKATLSVDKSKNTAYLQMNSLRAEDTAVYYCTRDAYGDWYFDVWGQGT | 1 | – | –
h7H5.v1 (Fab, part only; not given: VH end, constant domains, phage fusion, V domains shown, not shown: another chain or arm of the molecule; large carriers) VL: DIQMTQSPSSLSASVGDRVTITCKASQNVGSDVAWYQQKPGKAPKTLIYSTSYRYSGVPSRFSGSGSGTDFTLTISSLQPEDFATYYCQQYNSYPFTFGQGTKVEIK VH: EVQLVESGGGLVQPGGSLRLSCAASGYTFTDYYLYWVRQAPGKGLEWIGGISPSNGGTTFNDNFENKATLSVDKSKNTAYLQMNSLRAEDTAVYYCTRDAYGDWYFDVWGQGT | – | 0.05 | –
N28S(L1)+N92S(L3)+N54S/N60A/N62A/N65S(H2) (Fab, part only; not given: VH end, constant domains, phage fusion, V domains shown, not shown: another chain or arm of the molecule; large carriers) VL: DIQMTQSPSSLSASVGDRVTITCKASQSVGSDVAWYQQKPGKAPKTLIYSTSYRYSGVPSRFSGSGSGTDFTLTISSLQPEDFATYYCQQYSSYPFTFGQGTKVEIK VH: EVQLVESGGGLVQPGGSLRLSCAASGYTFTDYYLYWVRQAPGKGLEWIGGISPSSGGTTFADAFESKATLSVDKSKNTAYLQMNSLRAEDTAVYYCTRDAYGDWYFDVWGQGT | – | 0.04 | –
HC:G49S (Fab, part only; not given: VH end, constant domains, phage fusion, V domains shown, not shown: another chain or arm of the molecule; large carriers) VL: DIQMTQSPSSLSASVGDRVTITCKASQSVGSDVAWYQQKPGKAPKTLIYSTSYRYSGVPSRFSGSGSGTDFTLTISSLQPEDFATYYCQQYSSYPFTFGQGTKVEIK VH: EVQLVESGGGLVQPGGSLRLSCAASGYTFTDYYLYWVRQAPGKGLEWISGISPSSGGTTFADAFEGKATLSVDKSKNTAYLQMNSLRAEDTAVYYCTRDAYGDWYFDVWGQGT | – | 0.07 | –
HC:A78L (Fab, part only; not given: VH end, constant domains, phage fusion, V domains shown, not shown: another chain or arm of the molecule; large carriers) VL: DIQMTQSPSSLSASVGDRVTITCKASQSVGSDVAWYQQKPGKAPKTLIYSTSYRYSGVPSRFSGSGSGTDFTLTISSLQPEDFATYYCQQYSSYPFTFGQGTKVEIK VH: EVQLVESGGGLVQPGGSLRLSCAASGYTFTDYYLYWVRQAPGKGLEWIGGISPSSGGTTFADAFEGKATLSVDKSKNTLYLQMNSLRAEDTAVYYCTRDAYGDWYFDVWGQGT | – | 0.09 | –
h7H5.v2 framework modification clone, heavy chain A67F, displayed on phage as a monovalent Fab (Fab, name in Kabat numbering, V domains shown, Single mutation in h7H5.v2 made by Kunkel mutagenesis; monovalent Fab on phage; The position is Kabat and may be shifted from the count on the entry; also called heavy chain position 67 (A67F)) VH: EVQLVESGGGLVQPGGSLRLSCAASGYTFTDYYLYWVRQAPGKGLEWIGGISPSSGGTTFADAFEGKFTLSVDKSKNTAYLQMNSLRAEDTAVYYCTRDAYGDWYFDVWGQGT VL: DIQMTQSPSSLSASVGDRVTITCKASQSVGSDVAWYQQKPGKAPKTLIYSTSYRYSGVPSRFSGSGSGTDFTLTISSLQPEDFATYYCQQYSSYPFTFGQGTKVEIKR | – | – | binds
h7H5.v2 framework modification clone, heavy chain I48V, displayed on phage as a monovalent Fab (Fab, name in Kabat numbering, V domains shown, Single mutation in h7H5.v2 made by Kunkel mutagenesis; monovalent Fab on phage; also called heavy chain position 48 (I48V)) VH: EVQLVESGGGLVQPGGSLRLSCAASGYTFTDYYLYWVRQAPGKGLEWVGGISPSSGGTTFADAFEGKATLSVDKSKNTAYLQMNSLRAEDTAVYYCTRDAYGDWYFDVWGQGT VL: DIQMTQSPSSLSASVGDRVTITCKASQSVGSDVAWYQQKPGKAPKTLIYSTSYRYSGVPSRFSGSGSGTDFTLTISSLQPEDFATYYCQQYSSYPFTFGQGTKVEIKR | – | – | binds
h7H5.v2 framework modification clone, heavy chain K66R, displayed on phage as a monovalent Fab (Fab, name in Kabat numbering, V domains shown, Single mutation in h7H5.v2 made by Kunkel mutagenesis; monovalent Fab on phage; The position is Kabat and may be shifted from the count on the entry; also called heavy chain position 66 (K66R)) VH: EVQLVESGGGLVQPGGSLRLSCAASGYTFTDYYLYWVRQAPGKGLEWIGGISPSSGGTTFADAFEGRATLSVDKSKNTAYLQMNSLRAEDTAVYYCTRDAYGDWYFDVWGQGT VL: DIQMTQSPSSLSASVGDRVTITCKASQSVGSDVAWYQQKPGKAPKTLIYSTSYRYSGVPSRFSGSGSGTDFTLTISSLQPEDFATYYCQQYSSYPFTFGQGTKVEIKR | – | – | binds
h7H5.v2 framework modification clone, heavy chain L69I, displayed on phage as a monovalent Fab (Fab, name in Kabat numbering, V domains shown, Single mutation in h7H5.v2 made by Kunkel mutagenesis; monovalent Fab on phage; The position is Kabat and may be shifted from the count on the entry; also called heavy chain position 69 (L69I)) VH: EVQLVESGGGLVQPGGSLRLSCAASGYTFTDYYLYWVRQAPGKGLEWIGGISPSSGGTTFADAFEGKATISVDKSKNTAYLQMNSLRAEDTAVYYCTRDAYGDWYFDVWGQGT VL: DIQMTQSPSSLSASVGDRVTITCKASQSVGSDVAWYQQKPGKAPKTLIYSTSYRYSGVPSRFSGSGSGTDFTLTISSLQPEDFATYYCQQYSSYPFTFGQGTKVEIKR | – | ~0.05 | –
h7H5.v2 framework modification clone, heavy chain T30S, displayed on phage as a monovalent Fab (Fab, name in Kabat numbering, V domains shown, Single mutation in h7H5.v2 made by Kunkel mutagenesis; monovalent Fab on phage; also called heavy chain position 30 (T30S)) VH: EVQLVESGGGLVQPGGSLRLSCAASGYTFSDYYLYWVRQAPGKGLEWIGGISPSSGGTTFADAFEGKATLSVDKSKNTAYLQMNSLRAEDTAVYYCTRDAYGDWYFDVWGQGT VL: DIQMTQSPSSLSASVGDRVTITCKASQSVGSDVAWYQQKPGKAPKTLIYSTSYRYSGVPSRFSGSGSGTDFTLTISSLQPEDFATYYCQQYSSYPFTFGQGTKVEIKR | – | – | binds
h7H5.v2 framework modification clone, light chain T46L, displayed on phage as a monovalent Fab (Fab, name in Kabat numbering, V domains shown, Single mutation in h7H5.v2 made by Kunkel mutagenesis; monovalent Fab on phage; also called light chain position 46 (T46L)) VH: EVQLVESGGGLVQPGGSLRLSCAASGYTFTDYYLYWVRQAPGKGLEWIGGISPSSGGTTFADAFEGKATLSVDKSKNTAYLQMNSLRAEDTAVYYCTRDAYGDWYFDVWGQGT VL: DIQMTQSPSSLSASVGDRVTITCKASQSVGSDVAWYQQKPGKAPKLLIYSTSYRYSGVPSRFSGSGSGTDFTLTISSLQPEDFATYYCQQYSSYPFTFGQGTKVEIKR | – | – | binds
CDR-L1:N28S (Fab, V domains shown, Fab-phage; also called h7H5.v1 single point mutant, light chain N28S, Fab-phage; copies: 1 + 1) VH: EVQLVESGGGLVQPGGSLRLSCAASGYTFTDYYLYWVRQAPGKGLEWIGGISPSNGGTTFNDNFENKATLSVDKSKNTAYLQMNSLRAEDTAVYYCTRDAYGDWYFDVWGQGT VL: DIQMTQSPSSLSASVGDRVTITCKASQSVGSDVAWYQQKPGKAPKTLIYSTSYRYSGVPSRFSGSGSGTDFTLTISSLQPEDFATYYCQQYNSYPFTFGQGTKVEIK | 1.3 | – | –
h7H5.v2 displayed on phage as a monovalent Fab (Fab, V domains shown, also called humanized 7H5.v2; parental clone) VH: EVQLVESGGGLVQPGGSLRLSCAASGYTFTDYYLYWVRQAPGKGLEWIGGISPSSGGTTFADAFEGKATLSVDKSKNTAYLQMNSLRAEDTAVYYCTRDAYGDWYFDVWGQGT VL: DIQMTQSPSSLSASVGDRVTITCKASQSVGSDVAWYQQKPGKAPKTLIYSTSYRYSGVPSRFSGSGSGTDFTLTISSLQPEDFATYYCQQYSSYPFTFGQGTKVEIKR | – | ~0.06 | –
